Data reported in US20130101628A1 (NORTHWESTERN UNIVERSITY, priority 2011, published 2013).
* marks the point of attachment. Palmitoyl = CCCCCCCCCCCCCCCC(=O)*

What was measured:
[1] = target: T1, VEGF receptor 2 (VEGFR2 or KDR) (Homo sapiens, UniProt P35968); assay: Sandwich ELISA of phosphorylated VEGFR2 in lysates of stimulated HUVEC; assay type: cell-based
T1 construct: host or cells: HUVEC
Procedure: (§1) Human umbilical vein endothelial cells (HUVECs) and complete endothelial cell growth media (EGM) were purchased (Genlantis, San Diego, Calif.), passaged two times following receipt, and cryo-preserved in media with 5% DMSO. Cells were thawed as needed and grown to confluence in a […] flasks (VWR Falcon) prior to plating for experiments.
(§2) Phosphorylation of both VEGFRI and VEGFR2 was assayed using commercially available assay kit (R&D Systems, Minneapolis, Minn.) following the recommended protocol. First, confluent HUVECs plated in 24 well plates were starved for 5 hours in serum-free defined media (SFDM, Genlantis) specifically designed to maintain cells in a growth factor-free setting for growth factor signaling and metabolic assays. Following starvation, the various treatments were dissolved in SFDM to a concentration of 1 μM. […] Cells were exposed to treatment for 2 minutes. To evaluate the time-course of phosphorylation the same protocol was followed and cells were exposed to VEGF-PA for 0, 1, 3, 5, 10, 15, 20, 25, 30, 40, 50, and 60 minutes.

[2] = target: T2, VEGF receptor 1 (VEGFR1 or Flt-1) (Homo sapiens, UniProt P17948); assay: Sandwich ELISA of phosphorylated VEGFR1 in lysates of stimulated HUVEC; assay type: cell-based; settings: HUVEC time-course 0-60 minutes; falls below untreated baseline
T2 construct: host or cells: HUVEC
T2 sequence (P17948 27-1338): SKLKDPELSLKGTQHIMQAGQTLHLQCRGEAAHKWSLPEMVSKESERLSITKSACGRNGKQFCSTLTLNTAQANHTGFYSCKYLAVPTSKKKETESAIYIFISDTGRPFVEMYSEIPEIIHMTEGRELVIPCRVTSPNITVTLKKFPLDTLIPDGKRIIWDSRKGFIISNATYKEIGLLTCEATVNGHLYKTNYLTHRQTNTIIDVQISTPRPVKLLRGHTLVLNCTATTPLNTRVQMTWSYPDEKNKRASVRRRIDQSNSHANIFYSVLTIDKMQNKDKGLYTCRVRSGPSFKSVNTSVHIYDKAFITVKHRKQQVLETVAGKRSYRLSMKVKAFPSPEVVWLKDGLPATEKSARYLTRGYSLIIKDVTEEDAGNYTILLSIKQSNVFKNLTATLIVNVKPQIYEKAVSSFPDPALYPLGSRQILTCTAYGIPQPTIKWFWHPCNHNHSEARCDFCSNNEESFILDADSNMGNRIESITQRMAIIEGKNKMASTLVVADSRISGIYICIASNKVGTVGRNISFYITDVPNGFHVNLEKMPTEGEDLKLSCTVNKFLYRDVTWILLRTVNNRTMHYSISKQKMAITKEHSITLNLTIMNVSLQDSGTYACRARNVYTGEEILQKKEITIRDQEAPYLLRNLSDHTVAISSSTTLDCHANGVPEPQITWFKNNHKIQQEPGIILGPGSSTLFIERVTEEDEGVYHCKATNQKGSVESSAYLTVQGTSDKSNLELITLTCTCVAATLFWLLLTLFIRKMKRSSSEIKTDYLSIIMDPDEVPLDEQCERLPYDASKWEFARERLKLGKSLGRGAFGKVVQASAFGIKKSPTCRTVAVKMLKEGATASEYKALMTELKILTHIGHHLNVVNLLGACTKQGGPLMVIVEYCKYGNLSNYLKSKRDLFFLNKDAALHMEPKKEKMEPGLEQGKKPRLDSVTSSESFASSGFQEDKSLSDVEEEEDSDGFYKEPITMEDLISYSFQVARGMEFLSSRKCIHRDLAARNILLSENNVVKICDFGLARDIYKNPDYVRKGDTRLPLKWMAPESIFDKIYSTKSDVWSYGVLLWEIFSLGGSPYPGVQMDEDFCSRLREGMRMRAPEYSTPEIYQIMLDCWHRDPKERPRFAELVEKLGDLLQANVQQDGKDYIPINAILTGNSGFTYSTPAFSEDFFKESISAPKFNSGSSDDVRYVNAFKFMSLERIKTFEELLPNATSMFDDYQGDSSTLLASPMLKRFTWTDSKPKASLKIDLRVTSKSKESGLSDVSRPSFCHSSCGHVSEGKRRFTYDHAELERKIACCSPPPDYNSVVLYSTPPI
Procedure: as §1, §2

HUVECs = assay: HUVEC survival after serum-starvation (Annexin V-PE apoptosis); assay type: cell-based, human; settings: 1 μM in EBM, serum-starvation 24 hours; untreated 31.7%
Procedure: To evaluate cell survival, endothelial basal media (EBM) without growth factors (Lonza) was used to induce a serum-starvation. Cells were plated in 12 well plates and grown to confluence with standard growth media. […] Cells were grown in these conditions for 24 hours. Survival was quantified using Annexin V: PE staining with 7-AAD vital staining (BD Biosciences) following provided assay instructions and analyzed on a DakoCytomation CyAn. Survival was assessed by determining the fraction of cells that were apoptotic (Annexin V-PE positive).

T1 sequence (P35968 20-1356): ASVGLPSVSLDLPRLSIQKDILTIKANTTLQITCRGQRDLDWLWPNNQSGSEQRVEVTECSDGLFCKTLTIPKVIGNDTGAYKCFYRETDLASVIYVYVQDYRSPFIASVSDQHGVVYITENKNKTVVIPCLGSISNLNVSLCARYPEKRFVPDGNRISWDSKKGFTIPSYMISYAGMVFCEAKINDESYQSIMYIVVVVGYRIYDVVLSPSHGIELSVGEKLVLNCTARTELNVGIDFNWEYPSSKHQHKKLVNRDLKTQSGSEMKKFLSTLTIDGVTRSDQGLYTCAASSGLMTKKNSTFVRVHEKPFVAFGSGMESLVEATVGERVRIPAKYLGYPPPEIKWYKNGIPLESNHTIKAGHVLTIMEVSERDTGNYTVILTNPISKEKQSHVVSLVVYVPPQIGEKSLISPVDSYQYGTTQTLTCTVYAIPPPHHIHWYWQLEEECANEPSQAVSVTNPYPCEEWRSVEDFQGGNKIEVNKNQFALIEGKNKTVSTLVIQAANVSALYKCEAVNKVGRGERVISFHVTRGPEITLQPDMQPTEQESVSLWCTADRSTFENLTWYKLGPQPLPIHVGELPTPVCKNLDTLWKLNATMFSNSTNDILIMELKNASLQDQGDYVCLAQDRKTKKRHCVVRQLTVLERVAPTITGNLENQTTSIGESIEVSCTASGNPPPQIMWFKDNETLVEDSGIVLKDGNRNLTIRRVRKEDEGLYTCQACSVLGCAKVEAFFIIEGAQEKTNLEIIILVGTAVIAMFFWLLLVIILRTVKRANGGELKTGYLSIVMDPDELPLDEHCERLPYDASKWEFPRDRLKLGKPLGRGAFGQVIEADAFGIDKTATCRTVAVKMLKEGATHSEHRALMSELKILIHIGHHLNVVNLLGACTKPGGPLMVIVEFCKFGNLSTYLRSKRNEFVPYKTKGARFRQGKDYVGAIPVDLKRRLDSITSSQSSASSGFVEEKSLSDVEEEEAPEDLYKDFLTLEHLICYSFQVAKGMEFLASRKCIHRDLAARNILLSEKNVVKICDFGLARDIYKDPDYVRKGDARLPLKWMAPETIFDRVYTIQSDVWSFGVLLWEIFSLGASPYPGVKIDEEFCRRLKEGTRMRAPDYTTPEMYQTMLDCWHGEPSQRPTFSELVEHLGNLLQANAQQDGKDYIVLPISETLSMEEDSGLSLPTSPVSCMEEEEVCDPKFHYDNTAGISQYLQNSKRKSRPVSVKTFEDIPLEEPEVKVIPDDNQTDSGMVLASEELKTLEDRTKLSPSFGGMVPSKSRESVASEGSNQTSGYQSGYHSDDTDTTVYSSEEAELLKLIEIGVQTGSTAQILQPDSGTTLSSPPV

Substance: CH3(CH2)14C(O)— VVAAKKKGKLTWQELYQLKYKGI-NH2 (Palmitoyl-VVAAKKKGKLTWQELYQLKYKGI-NH2; SMILES CCCCCCCCCCCCCCCC(=O)N[C@H](C(=O)N[C@H](C(=O)N[C@@H](C)C(=O)N[C@@H](C)C(=O)N[C@@H](CCCCN)C(=O)N[C@@H](CCCCN)C(=O)N[C@@H](CCCCN)C(=O)NCC(=O)N[C@@H](CCCCN)C(=O)N[C@@H](CC(C)C)C(=O)N[C@H](C(=O)N[C@@H](Cc1c[nH]c2ccccc12)C(=O)N[C@@H](CCC(N)=O)C(=O)N[C@@H](CCC(=O)O)C(=O)N[C@@H](CC(C)C)C(=O)N[C@@H](Cc1ccc(O)cc1)C(=O)N[C@@H](CCC(N)=O)C(=O)N[C@@H](CC(C)C)C(=O)N[C@@H](CCCCN)C(=O)N[C@@H](Cc1ccc(O)cc1)C(=O)N[C@@H](CCCCN)C(=O)NCC(=O)N[C@H](C(N)=O)[C@@H](C)CC)[C@@H](C)O)C(C)C)C(C)C) [VEGF-PA]
- time of stimulation at which phosphorylated VEGFR2 begins to decrease after initial rise ([1]; HUVEC time-course 0-60 minutes, falls below untreated baseline): 10 min
- VEGFR2 phosphorylation level relative to untreated control ([1]; HUVEC, 1 μM, 2 minutes exposure, untreated control 1.000±0.109): 1.581±0.050
- time of stimulation at which phosphorylated VEGFR1 begins to decrease after initial rise [2]: 10 min
- fraction of apoptotic cells (Annexin V-PE positive) (HUVECs): 10.2%±3.2%
